# Assay results published in publication PMC2018633 (Nucleic Acids Research, 2007).
# T1: P. abyssi aCBF5 protein (Pyrococcus abyssi, UniProt Q9V1A5 1-334)
# T1 sequence (looked up): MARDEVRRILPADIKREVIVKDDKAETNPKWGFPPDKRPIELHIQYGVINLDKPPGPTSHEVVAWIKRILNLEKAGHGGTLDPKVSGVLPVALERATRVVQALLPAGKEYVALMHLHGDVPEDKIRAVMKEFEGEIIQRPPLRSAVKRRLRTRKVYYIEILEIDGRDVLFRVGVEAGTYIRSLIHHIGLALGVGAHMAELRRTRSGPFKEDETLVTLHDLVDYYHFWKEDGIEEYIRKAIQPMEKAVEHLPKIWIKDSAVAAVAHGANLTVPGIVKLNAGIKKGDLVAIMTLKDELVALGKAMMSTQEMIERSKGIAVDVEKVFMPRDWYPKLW
# T2: aCBF5 K53A variant (Pyrococcus abyssi, UniProt Q9V1A5 1-334, K53A)
# T2 sequence (looked up): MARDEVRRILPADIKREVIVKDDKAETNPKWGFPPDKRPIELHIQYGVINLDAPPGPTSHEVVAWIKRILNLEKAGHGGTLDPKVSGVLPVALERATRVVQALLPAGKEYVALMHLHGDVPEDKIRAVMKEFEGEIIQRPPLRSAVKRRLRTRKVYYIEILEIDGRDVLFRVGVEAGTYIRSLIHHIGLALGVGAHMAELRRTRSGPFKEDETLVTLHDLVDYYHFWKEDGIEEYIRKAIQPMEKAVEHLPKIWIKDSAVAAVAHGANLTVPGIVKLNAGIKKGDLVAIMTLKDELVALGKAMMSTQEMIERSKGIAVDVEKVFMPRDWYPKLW
# T3: aCBF5 R202A variant (Pyrococcus abyssi, UniProt Q9V1A5 1-334, R202A)
# T3 sequence (looked up): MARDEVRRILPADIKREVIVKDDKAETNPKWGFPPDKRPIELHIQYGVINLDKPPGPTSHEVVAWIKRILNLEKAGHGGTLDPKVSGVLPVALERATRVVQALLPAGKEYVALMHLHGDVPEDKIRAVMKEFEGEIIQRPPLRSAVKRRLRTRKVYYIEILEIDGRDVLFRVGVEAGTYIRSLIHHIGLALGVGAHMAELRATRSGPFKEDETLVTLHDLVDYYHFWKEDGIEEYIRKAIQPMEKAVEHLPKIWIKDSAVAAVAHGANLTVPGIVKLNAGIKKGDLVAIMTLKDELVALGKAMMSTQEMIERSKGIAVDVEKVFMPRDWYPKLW
# T4: aCBF5 H77A variant (Pyrococcus abyssi, UniProt Q9V1A5 1-334, H77A)
# T4 sequence (looked up): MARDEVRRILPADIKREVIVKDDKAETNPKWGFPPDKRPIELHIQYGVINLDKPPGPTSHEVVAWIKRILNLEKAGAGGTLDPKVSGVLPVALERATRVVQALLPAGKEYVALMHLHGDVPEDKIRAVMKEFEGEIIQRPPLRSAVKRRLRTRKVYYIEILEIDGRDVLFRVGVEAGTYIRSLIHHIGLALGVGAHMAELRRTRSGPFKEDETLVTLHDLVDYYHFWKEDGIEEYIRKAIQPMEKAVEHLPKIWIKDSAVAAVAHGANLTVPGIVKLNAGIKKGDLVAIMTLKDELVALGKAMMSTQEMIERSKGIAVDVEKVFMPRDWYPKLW
# Columns and labels:
# P. abyssi aCBF5 protein = molecular target: T1, P. abyssi aCBF5 protein; experiment: cell-based or functional assay
# aCBF5 K53A variant = molecular target: T2, aCBF5 K53A variant; experiment: native gel or EMSA
# aCBF5 R202A variant = molecular target: T3, aCBF5 R202A variant; experiment: native gel or EMSA
# aCBF5 H77A variant = molecular target: T4, aCBF5 H77A variant; experiment: native gel or EMSA
binder,measurement,setting,value
"P. abyssi aNOP10 protein (natural protein, Pyrococcus abyssi, UniProt Q9V0E3 1-60, looked up) MRFRIRKCPKCGRYTLKETCPVCGEKTKVAHPPRFSPEDPYGEYRRRLKRELLGIGRKEK","level of aCBF5-tRNAAsp complexes by EMSA, with against without aNOP10",P. abyssi aCBF5 protein,~4 fold
same,binding result,aCBF5 K53A variant,binds
same,binding result,aCBF5 R202A variant,binds
same,binding result,aCBF5 H77A variant,binds
